This is an account of results in article PMC4860257 (Structure (London, England : 1993), 2016).

Numbering of substitutions follows the chain as printed. Names and notes keep the numbering of the source.

To fix the notation:
B1: talin R7R8R9 (residues 1357-1822), wild type, His tag removed, as crystallised (domain or fragment, UniProt P26039 1357-1822, looked up)
chain: APGQKECDNALRQLETVRELLENPVQPINDMSYFGCLDSVMENSKVLGEAMTGISQNAKNGNLPEFGDAIATASKALCGFTEAAAQAAYLVGVSDPNSQAGQQGLVEPTQFARANQAIQMACQSLGEPGCTQAQVLSAATIVAKHTSALCNSCRLASARTANPTAKRQFVQSAKEVANSTANLVKTIKALDGDFTEENRAQCRAATAPLLEAVDNLSAFASNPEFSSVPAQISPEGRAAMEPIVISAKTMLESAGGLIQTARALAVNPRDPPRWSVLAGHSRTVSDSIKKLITSMRDKAPGQLECETAIAALNSCLRDLDQASLAAVSQQLAPREGISQEALHTQMLTAVQEISHLIEPLASAARAEASQLGHKVSQMAQYFEPLTLAAVGAASKTLSHPQQMALLDQTKTLAESALQLLYTAKEAGGNPKQAAHTQEALEEAVQMMTEAVEDLTTTLNEAASAAG
B2: GST-tagged talin F2F3 domains (residues 196-405) (domain or fragment, UniProt P26039 196-405, looked up)
chain: KFFYSDQNVDSRDPVQLNLLYVQARDDILNGSHPVSFDKACEFAGFQCQIQFGPHNEQKHKAGFLDLKDFLPKEYVKQKGERKIFQAHKNCGQMSEIEAKVRYVKLARSLKTYGVSFFLVKEKMKGKNKLVPRLLGITKECVMRVDEKTKEVIQEWSLTNIKRWAASPKSFTLDFGDYQDGYYSVQTTEGEQIAQLIAGYIDIILKKKKS
B3: His-tagged talin R7R8R9-3Y (E1794Y/E1797Y/Q1801Y) (domain or fragment, UniProt P26039 1357-1822, looked up)
chain: B1 chain with E438Y, E441Y, Q445Y
B4: His-tagged talin R7R8R9-2Y (E1794Y/E1797Y) (domain or fragment, UniProt P26039 1357-1822, looked up)
chain: B1 chain with E438Y, E441Y
B5: GST-tagged talin R9 domain (residues 1655-1822), wild type (domain or fragment, UniProt P26039 1655-1822, looked up)
chain: APGQLECETAIAALNSCLRDLDQASLAAVSQQLAPREGISQEALHTQMLTAVQEISHLIEPLASAARAEASQLGHKVSQMAQYFEPLTLAAVGAASKTLSHPQQMALLDQTKTLAESALQLLYTAKEAGGNPKQAAHTQEALEEAVQMMTEAVEDLTTTLNEAASAAG
B6: GST-tagged talin R9-3Y (E1794Y/E1797Y/Q1801Y) (domain or fragment, UniProt P26039 1655-1822, looked up)
chain: B5 chain with E140Y, E143Y, Q147Y
B7: GST-tagged talin R9-T1812Y (domain or fragment, UniProt P26039 1655-1822, looked up)
chain: B5 chain with T158Y

The series “crystal structure” deals with the molecule itself. Kind of series: crystal structure.
For series [1], the target named is His-tagged talin R7R8R9 (residues 1357-1822), wild type (UniProt P26039 1357-1822). Kind of series: pull-down.
The target in series [2] is B4. Kind of series: pull-down.
Series [3] has as its target B3. Kind of series: pull-down.
The series “SEC-MALS” deals with the molecule itself. Nature of the series: SEC-MALS. Background: In gel filtration, larger molecules generally elute earlier.
Series [4] concerns the target His-tagged talin F2F3 domains (residues 196-405), wild type (UniProt P26039 196-405). Nature of the series: pull-down.
The target in series [5] is His-tagged talin F2F3-K322A (UniProt P26039 196-405, K322A). Nature of the series: pull-down.
The target of series [6] is His-tagged talin F2F3-K324A (UniProt P26039 196-405, K324A). Nature of the series: pull-down.
For series [7], the target named is His-tagged talin F2F3-KKR (K272A/K274A/R277A) (UniProt P26039 196-405, K272A | K274A | R277A). Nature of the series: pull-down.

For B1, the binding result in “crystal structure” is recorded as “binds”.

Regarding B2, the binding result in [1], in series [2] and in series [3] was “binds” each time.

As for B3, in the series “SEC-MALS”, the stoichiometry N – broadly, a count of units in the complex or per binding partner – worked out at 2. B4: the “stoichiometry N” value in “SEC-MALS” was found to be 2. As for B5, the binding result in series [4], in series [5], in series [6] and in series [7] was “binds” in each case. As to B6, the binding result in [4] is recorded as “binds”. As for B7, in series [4], the binding result was “binds”.
